Biological target: GST-FLAG-Pol12 of Candida glabrata (Candida glabrata)
Test: pull-down

His6-SUMO-Stn1 of Candida glabrata (natural protein)
stoichiometry N: 1

Source: PMC4269169
